Data reported in patent US20210364527A1.

Target: polypeptide with a terminal leucine residue (rest of sequence not given)
Assay: single-molecule dwell time analysis; panel Leu; filtered 0.00s<=dur<=20.00s and magnitude above baseline > 15.0

- mean pulse duration (dashed line of the distribution): 0.35 s
Substance: Synechococcus elongatus ClpS2
